Experiments:
[1] = target: CD14 on human CD14+ monocytes (UniProt P08571); assay: flow cytometry on cells
[2] = target: SARS-CoV-2 ORF8 (S84) Ig-like domain (SARS-CoV-2) (UniProt P0DTC8); assay: SEC
[3] = target: SARS-CoV-2 ORF8 (S84) Ig-like domain (SARS-CoV-2) (UniProt P0DTC8); assay: non-reducing SDS-PAGE
[4] = target: SARS-CoV-2 ORF8 (S84) (71–76) A mutant (SARS-CoV-2) (UniProt P0DTC8); assay: SEC
non-reducing SDS-PAGE = target: the molecule itself; assay: non-reducing SDS-PAGE

Chain of CD14 on human CD14+ monocytes (P08571 20-345): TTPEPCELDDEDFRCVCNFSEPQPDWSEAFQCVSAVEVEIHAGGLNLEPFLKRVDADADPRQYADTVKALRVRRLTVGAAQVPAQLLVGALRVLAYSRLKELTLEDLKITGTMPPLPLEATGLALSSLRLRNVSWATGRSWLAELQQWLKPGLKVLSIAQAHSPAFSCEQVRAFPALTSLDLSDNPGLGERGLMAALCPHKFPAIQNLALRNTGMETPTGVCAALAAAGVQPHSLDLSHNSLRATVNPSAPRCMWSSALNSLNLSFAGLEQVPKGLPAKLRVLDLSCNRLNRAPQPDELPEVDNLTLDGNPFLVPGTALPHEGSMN

For “SARS-CoV-2 ORF8 (L84) Ig-like domain (from UniProt P0DTC8) L84S”, the response ([1]; parent: 48.7) was 37.7%, the response ([1]; parent: 51.8) was 32.7% and the response ([1]; parent: 54.1) was 32.7%. It also gave a response ([1]; parent: 68.0) of 47.9% and a response ([1]; parent: est. 56, read off a plot) of 38%.

Work on “SARS-CoV-2 ORF8 (S84) Ig-like domain (from UniProt P0DTC8 16-121) (domain or fragment)” yielded a stoichiometry N [2] of 2 and a stoichiometry N [3] of 2.

Molecule “SARS-CoV-2 ORF8 (S84) (71–76) A mutant (from UniProt P0DTC8 16-121) (domain or fragment)” has a stoichiometry N [4] of 2.

B1: SARS-CoV-2 ORF8 (L84) (71–76) A (domain or fragment)
chain: FHQECSLQSCTQHQPYVVDDPCPIHFYSKWYIRVGARKSAPLIELCVDEAGSKSPAAAAAAGNYTVSCLPFTINCQEPKLGSLVVRCSFYEDFLEYHDVRVVLDFI
B1: binds (non-reducing SDS-PAGE).
